Experimental data: paper PMC4586593
Read-outs that look alike come from different tables or passages of the source.

Columns and labels:
[1] = biological target: unphosphorylated smooth muscle myosin (SMM) filaments stabilized against ATP-induced disassembly (UniProt P10587)
[2] = biological target: unphosphorylated smooth muscle myosin (SMM) filaments stabilized against ATP-induced disassembly (UniProt P10587); remark: listed apart in the source

Kd [1]: 1500 nM
Kd [2]: 1300 nM
Substance: smooth muscle MLCK, short isoform, from chicken gizzard, unlabeled (enzyme)
